Source: patent publication US20200308303A1 (KATHOLIEKE UNIVERSITEIT LEUVEN, published 2020)

Molecular target: ovine ADAMTS13 (sheep (ovine))
Assay: cell-based or functional assay

B1: monoclonal anti-ADAMTS13 antibody 17C7 (antibody, V domains shown)
VH: EVQLVESGGDLVKSGGSLKLSCAASGFIFSNYAMSWVRQTPEKRLEWGATITTGGFYTFYSDSVKGRFTISRDNAKNTLYLQMSSLRSEDTAMYYCARHRYDDYYALDYWGQGTSVTVSS
VL: ENVLTQSPAIMSTSPGEKVTMTCNVSSSVSYMRWFQQKSSTSPKLWIYDTSKLASGVPGRFSGSGSGHSYSLTISSMEADDVATYYCFQGNGYPLTFGAGTKLELK
modifications: Biotinylated when used as detector; the site is not stated and the letters cannot carry it.
With B1 the “half maximal inhibitory concentration (IC50) of ADAMTS13 activity in ovine plasma, FRETS-VWF71 assay” value was 2.4 µg/mL.
